# Tests used:
# [1] = target: BAP-tagged Histophilus somni Transferrin binding protein B (aa 21-643) (Histophilus somni strain H191); test: BLI
# [2] = target: ovine transferrin (sheep); test: ELISA
# [3] = target: caprine transferrin (goat); test: ELISA
fold lower affinity than for bovine transferrin [1],absorbance signal relative to that with bovine transferrin [2],absorbance signal relative to that with bovine transferrin [3],Substance
15.7 fold,–,–,caprine transferrin (ligand)
–,0.25 fold,0.25 fold,Histophilus somni Transferrin binding protein A 2 (receptor)
3 fold,–,–,ovine transferrin (ligand)

# Reference: paper doi:10.1101/730739
